Here are results for one molecule from US20250066499A1 (SUNSHINE GUOJIAN PHARMACEUTICAL SHANGHAI, published 2025).

The target in assay [1] is T1, CD73-ND-his (human, UniProt P21589 27-317).
T1 construct: Biotinylated and captured on streptavidin in the ELISA
T1 sequence: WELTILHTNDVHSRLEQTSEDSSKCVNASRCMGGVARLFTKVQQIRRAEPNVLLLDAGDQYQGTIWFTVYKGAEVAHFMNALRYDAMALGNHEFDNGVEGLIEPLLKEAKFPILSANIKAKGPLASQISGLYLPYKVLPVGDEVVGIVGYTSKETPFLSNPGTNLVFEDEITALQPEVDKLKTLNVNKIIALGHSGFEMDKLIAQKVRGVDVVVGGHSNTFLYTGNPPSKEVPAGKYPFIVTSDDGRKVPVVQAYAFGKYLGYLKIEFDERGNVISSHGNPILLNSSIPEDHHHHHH
In words: ELISA; decline multiple of Top against CD73-ND. As for the experimental part:
(§1) The ELISA plates were coated with SA protein diluted to 1.5 μg/mL in coating buffer (50 mM carbonate coating buffer, pH 9.6) and incubated overnight at 4° C. The supernatant was discarded, and the plates were washed three times with PBST. Then, 5% skimmed milk powder prepared with PBS was added for blocking and the plates were incubated for 2 h at 37° C. After washing the plates once with PBST, CD73-biotin protein (prepared by biotinylating CD73-His protein according to the EZ-Link NHS-Biotin Reagent instructions) was diluted to 0.5 μg/mL and added at 100 μL/well for incubation at room temperature for 1 h. The plates were washed three times with PBST, and the prepared murine-derived monoclonal antibodies against human CD73 were serially diluted with 1% BSA buffer prepared with PBST and added to the ELISA plates at 100 μl/well. The plates were incubated at 37° C. for 1 h. After washing the plates three times with PBST, HRP-labeled goat anti-mouse IgG secondary antibody was added and the plates were incubated for 30 min at 37° C. After washing the plates three times with PBST, the residual droplets were patted dry on absorbent paper as much as possible. Then, 100 μl of TMB color developing solution was added to each well, and the plates were incubated in the dark at room temperature for 5 min for color development. Subsequently, 50 μl of 2M H₂SO₄ stop solution was added to each well to terminate the substrate reaction. The OD values were read at 450 nm using a multimode microplate reader to analyze the binding ability of the tested antibodies to the target antigen human CD73-His.
(§2) Referring to the experimental method in Example 3, the affinity of 48A11-HuV33 for various mutant proteins of CD73-ND was determined. The SA protein was diluted to 1 μg/mL for coating the ELISA plates, and the biotinylated CD73 protein (CD73-biotin) was used at a concentration of 0.1 μg/mL.

Another assay has as its target T2, human CD73-His protein (human, UniProt P21589 27-549).
T2 construct: Expressed in HEK-293F with a signal peptide that is not specified; In the ELISAs it was biotinylated with EZ-Link NHS-Biotin (CD73-biotin) and captured on streptavidin; in SPR and the enzyme assay it was used as CD73-His; also called CD73-his antigen; CD73-biotin
T2 sequence: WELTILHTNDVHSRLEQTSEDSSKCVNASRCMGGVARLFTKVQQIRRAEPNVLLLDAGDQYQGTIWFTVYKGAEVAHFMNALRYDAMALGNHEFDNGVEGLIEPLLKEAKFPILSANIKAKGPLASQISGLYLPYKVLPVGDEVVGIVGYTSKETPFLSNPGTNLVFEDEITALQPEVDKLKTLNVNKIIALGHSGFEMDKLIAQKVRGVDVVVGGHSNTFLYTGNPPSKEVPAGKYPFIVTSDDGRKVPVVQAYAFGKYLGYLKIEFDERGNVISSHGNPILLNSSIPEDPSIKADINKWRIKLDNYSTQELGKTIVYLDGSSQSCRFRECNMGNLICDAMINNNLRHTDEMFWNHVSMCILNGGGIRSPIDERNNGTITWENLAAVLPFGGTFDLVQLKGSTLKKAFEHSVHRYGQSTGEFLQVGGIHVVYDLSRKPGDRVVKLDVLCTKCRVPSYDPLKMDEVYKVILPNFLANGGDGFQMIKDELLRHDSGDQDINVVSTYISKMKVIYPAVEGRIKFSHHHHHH
In words: ELISA as in Example 3, antigen CD73-his, antibody titrated, absorbance 450 nm.

For a further assay, the target named is T3, CD73-ND-N187A (human, UniProt P21589 27-317).
T3 construct: Alanine mutant of CD73-ND
T3 sequence: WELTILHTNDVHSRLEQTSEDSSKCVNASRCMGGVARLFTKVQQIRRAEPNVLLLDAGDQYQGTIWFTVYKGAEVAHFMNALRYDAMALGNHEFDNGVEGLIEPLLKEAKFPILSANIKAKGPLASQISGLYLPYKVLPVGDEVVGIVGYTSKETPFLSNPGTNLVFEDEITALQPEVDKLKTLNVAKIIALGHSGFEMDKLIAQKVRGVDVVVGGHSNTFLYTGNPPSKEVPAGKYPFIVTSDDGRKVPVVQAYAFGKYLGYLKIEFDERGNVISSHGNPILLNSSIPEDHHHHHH
In words: ELISA; decline multiple of EC50 against CD73-ND. The method, then: as §1, §2

A further assay has as its target T4, CD73-ND-V186A (human, UniProt P21589 27-317).
T4 construct: Alanine mutant of CD73-ND
T4 sequence: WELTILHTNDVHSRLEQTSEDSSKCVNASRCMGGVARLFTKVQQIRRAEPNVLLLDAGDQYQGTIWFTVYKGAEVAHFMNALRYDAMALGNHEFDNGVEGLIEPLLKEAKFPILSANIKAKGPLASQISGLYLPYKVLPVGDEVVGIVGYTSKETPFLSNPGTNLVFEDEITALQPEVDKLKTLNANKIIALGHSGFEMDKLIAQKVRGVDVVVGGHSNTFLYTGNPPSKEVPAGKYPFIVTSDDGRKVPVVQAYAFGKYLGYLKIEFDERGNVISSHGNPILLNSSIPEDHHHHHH
In words: ELISA; decline multiple of EC50 against CD73-ND. As for the experimental part:
as §1, §2

Assay [2] deals with T1, CD73-ND-his. Nature of the assay: ELISA; decline multiple of EC50 against CD73-ND. The method, then: as §1, §2
For assay [3], the target named is T1, CD73-ND-his. In words: ELISA as in Example 3, antigen CD73-ND-his, antibody titrated, absorbance 450 nm.

B1: 48A11-HuV33 (antibody, human IgG4, V domains shown)
VH: QVQLVQSGAEVKKPGASVKVSCKASGYTFTSYWMHWVRQAPGQGLEWIGEINPSIGRTNYNEKFKSRVTLTRDTSTSTAYMELSSLRSEDTAVYYCARRVYGTMDYWGQGTLVTVSS
VL: DIQMTQSPSSLSASVGDRVTITCKASQDINSYLSWFQQKPGKSPKLLIYRANIWVDGVPSRFSGSGSGQDYTFTISSLQPEDIATYYCLQYDELYTFGQGTKVEIK
notes: Humanized
Take B1: the “Ratio(Top)” value with CD73-ND-his [1] was 1 fold. The “EC50 (read off the curve)” value in the assay with human CD73-His protein and with CD73-ND-his [3] was about 0.04 nM in each case. For the same molecule, the “Ratio(EC50)” value is 0.9 fold with CD73-ND-N187A, 1.4 fold in the assay with CD73-ND-V186A and 0.8 fold in the assay with CD73-ND-his [2].
